From the supplement of paper PMC12042874
± gives the uncertainty stated by the source.

Test: amyloid nucleation score (Sup35N fusion, yeast selection) (log enrichment); library NNK1; higher = more nucleation; inactive = no reads after selection
Method in brief: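 The nucleation score is a DiMSum log enrichment of output over input reads, centred on the mode score of non-aggregating sequences. Sequences under 100 input reads were excluded, and reads came from Illumina sequencing of plasmid inserts. Psi-negative yeast expressing Sup35N fused to peptides of 20 random codons were induced with 100 μM copper sulfate for 24 hours and grown 7 days at 30°C on medium lacking adenine and uracil. Random libraries had three technical output replicates.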

Substance	amyloid nucleation score
SGKVVNPCMNDSDLVLNRIW	-0.011 ± 0.23
ESFGRTISVTELSHMT	0.487 ± 0.39
LTHYEFGTFFYKVWSNDRHK	3.35 ± 0.062
STKKLYTILRHWSYDFAESG	-0.509 ± 1.7
MSRCLIDSIEIFHWTGGRYA	-0.386 ± 1.2
LVYPYESLFHFESGASH	0.32 ± 0.21
LNTQVRVGDKVCLRIFARLL	0.944 ± 0.9
SAGYYPVVLCALILEAEYQD	-0.541 ± 0.61
AFIARVTRFGVTRDPLIRQ	inactive
IKFRCYLCG	0.44 ± 0.9
MFAVMNGAVLSTPLDNVCRV	-0.581 ± 1.6
YYISRVVVDGIRKYWGYLES	-0.866 ± 1.9
GSATRTPVITQRICLPVGCR	-0.691 ± 0.56
RLLPYILMTFLHEYVGAGYE	0.561 ± 0.37
WWLLSLP	0.196 ± 0.26
LCLDKQSSCGSMMSGIYDLM	-0.064 ± 0.28
PWADVR	0.721 ± 0.38
LTAIFSRIFNI	-0.997 ± 1.4
SSVYFSRFTERQKAVRETGS	inactive
GSYFGKGSVK	0.563 ± 0.97
FVLQKGYK	0.2 ± 0.59
LARDRFTYLAASYPFTPSRA	-0.761 ± 1.7

Substance	amyloid nucleation score
NILPSREYHVAKVAGCATGW	-0.618 ± 1.4
VNNRRRVSVHDLRDATPGTF	0.099 ± 0.53
YWHDVI	0.104 ± 1
LWVYSMWVQLTAGFNTVDVM	-0.707 ± 0.95
TILMASTSYFIPSLP	1.38 ± 0.21
NVILFNYLREILRLCYMACM	0.758 ± 0.81
VGSLFYKVRPGNNSFVTHIH	1.08 ± 0.88
LRCSLDGFFGLDWLANLILD	-0.115 ± 0.23
CSCYRFLGDSKWIRHHINRT	-0.679 ± 0.85
SYSKGGMSPFWWTTHRCDIM	2.09 ± 0.35
GISCFHW	1.98 ± 0.18
YMLLTLGLTTLVCNSHRLVL	0.026 ± 0.55
NVSDWSHVFMSMFLIMGGCN	0.509 ± 0.66
WFFHLTNLSFCCNPLVVPRV	-0.004 ± 0.78
WYLWHMLICLVTFRMNSFFR	0.707 ± 1
FSMGGYFLFLCNNFTLYHIS	7.598 ± 0.07
DLQSSSDNLLGYMCFSCCKH	-0.463 ± 0.98
SSSYVYYEGRFILTFGLF	-0.157 ± 0.47
RLCPENLRTNFKCVLNFMVT	4.81 ± 0.12
VVMEMINFHPSTLCSILQ	5.07 ± 0.11
FWSHHPHTNENMCTYTNLSW	inactive
LTYLWFT	-0.095 ± 0.27

Substance	amyloid nucleation score
FGQSQPCDVTRENFCKEACN	-0.028 ± 0.9
CHIGSRPLASMKAFPHCDVA	1 ± 0.57
DGGICYD	0.733 ± 0.31
VLSYL	-0.248 ± 0.38
YGTGMCHELCIDVTSWVMWM	-1.57 ± 0.79
FSCGCIRYFSG	-0.115 ± 0.91
GWDYLFFLFTFCYV	-0.771 ± 1.1
VVPFRLLDIQRNGCFDHGYP	0.142 ± 1.4
FASASLLFSKPESG	-1.41 ± 2.4
DWNYKFMGRRLEHMCQVLM	-1.03 ± 1.1
ACLCVIRMFHYNGLRH	0.576 ± 0.76
WMLVRAACLGIKRKNG	0.759 ± 0.51
KRTESKLDYFKVRLCRTRFS	0.122 ± 0.43
YIHLMRYARNLLPFRYCV	-0.641 ± 0.5
PIVLWTIIPNTFKS	1.25 ± 0.17
LGTCPYSPPEANN	-0.604 ± 0.5
FRIVGSRMFVLLLCYVSSGR	0.241 ± 0.27
TISSLNLTRLSLDIFDFQSQ	3.25 ± 0.21
FKVVF	-0.909 ± 1.9
YSGPGAGFGGLLCIGNAQNL	-0.108 ± 0.62
YMVLS	0.9 ± 0.85
ENPDW	1.66 ± 0.73

Substance	amyloid nucleation score
YNSRGDCRTLVKRGMGNFCA	0.191 ± 0.32
SFMQFDIRFT	1.4 ± 0.27
KAFNVFER	0.225 ± 0.53
DHWSASIVIPVWSERNNSFG	-0.373 ± 1.4
LTSRVQCKNNCFSD	2.38 ± 0.55
PTKSIMLFCLGLFCGYLARA	2.91 ± 0.093
NGGMGSPLDYQRWSDGDQVG	-0.365 ± 1.1
IRGLRVLHSVFLALLVCKNL	-0.136 ± 0.59
EWACFRGAYPAYSDLFR	-0.327 ± 0.67
NLREDENSGCNCGVDFLGQG	-0.435 ± 0.4
LNRVLMTIWCTPMSICTYDC	3.89 ± 0.12
RLSLETIVASFIYCCCAKFA	1.66 ± 0.5
LCPGNMLLLITDQYSNWEEI	0.068 ± 0.3
SSCNRRSHKP	-0.471 ± 0.54
IAIFKYVKRDSSGKNCLSRS	-0.242 ± 0.25
LNWVLFADLLWPR	0.212 ± 0.57
SMFRVYYSGGQLQ	4.75 ± 0.058
HFSNIDNARNCSDSYWRYGI	0.168 ± 0.3
WYIVPITVNFQG	6.54 ± 0.049
SNVAVRTSCYTGARMYTRWW	1.94 ± 0.19
